{"source": "patent US20260265405A1", "about": "(NONA BIOSCIENCES SUZHOU, published 2026)", "binders": {"B1": {"name": "PR300159 (antibody, V domains shown)", "VH": "QVQLVESGGGVVQPGRSLRLSCAASGFTFSSDGMNWVRQAPGKGLEWVAVIWNDGSNKYYADSVKGRFTISRDNSKNTLYLQMNSLRAEDTAVYYCARDRGPLWPLDYWGQGTLVTVSS", "VL": "DIQMTQSPSTLSASVGDRVTITCRASQSISRWLAWYQQKPGKAPKLLIYKASSLESGVPSRFSGSGSGTEFTLTISNLQPDDFATFYCQQYNSYSRTFGQGTKVEIKR", "notes": "Parental antibody from Harbour H2L2 mice"}, "B2": {"name": "PR300159-3 (antibody, V domains shown)", "VH": "B1 VH with G33A, G55A", "VL": "B1 VL", "notes": "PTM removal variant of PR300159: heavy chain G33A and G55A"}, "B3": {"name": "PR300159-1 (antibody, V domains shown)", "VH": "B1 VH with G33A, D54E", "VL": "B1 VL with N92S", "notes": "PTM removal variant of PR300159: heavy chain G33A and D54E, light chain N92S"}, "B4": {"name": "PR300159-4 (antibody, V domains shown)", "VH": "B1 VH", "VL": "B1 VL with S93A", "notes": "PTM removal variant of PR300159: light chain S93A"}, "B5": {"name": "PR300159-8 (antibody, V domains shown)", "VH": "B1 VH", "VL": "B1 VL with N92A", "notes": "PTM removal variant of PR300159: light chain N92A"}, "B6": {"name": "PR300159-7 (antibody, V domains shown)", "VH": "B1 VH", "VL": "B1 VL with N92T", "notes": "PTM removal variant of PR300159: light chain N92T"}, "B7": {"name": "PR300159-6 (antibody, V domains shown)", "VH": "B1 VH", "VL": "B1 VL with S93T", "notes": "PTM removal variant of PR300159: light chain S93T"}, "B8": {"name": "PR300159-9 (antibody, V domains shown)", "VH": "B1 VH with G33A, D54E", "VL": "B1 VL with S93A", "notes": "PTM removal variant of PR300159: heavy chain G33A and D54E, light chain S93A"}, "B9": {"name": "PR300159-5 (antibody, V domains shown)", "VH": "B1 VH", "VL": "B1 VL with N92Q", "notes": "PTM removal variant of PR300159: light chain N92Q"}, "B10": {"name": "PR300186 (antibody, human IgG1, kappa, V domains shown)", "VH": "QVQLQESGPGLVKPSETLSLTCTVSGGSINNYYWSWVRQPPGKGLEWIGYIFYSGSTNSNPSLKSRVIISVDTSKNQFSLKLSSVTAADTAVYYCAREVGRIAVAGWFFDLWGRGTLVTVSS", "VL": "not shown", "notes": "as for B1"}, "B11": {"name": "PR300186-10 (antibody, human IgG1, kappa, V domains shown)", "VH": "B10 VH with N30Q, N58Q", "VL": "not shown", "notes": "PTM removal variant of PR300186: heavy chain N30Q and N58Q, light chain S31A"}, "B12": {"name": "PR300186-3 (antibody, human IgG1, kappa, V domains shown)", "VH": "B10 VH with N30Q, N58Q", "VL": "not shown"}, "B13": {"name": "PR300186-9 (antibody, human IgG1, kappa, V domains shown)", "VH": "B10 VH", "VL": "not shown"}}, "note": "Substitutions are numbered along the chain they refer to. Numbers in names are those of the source."}
{"biological_target": "T1, membrane-bound human MSLN (on CHOK1-hu MSLN cells and endogenously on COV644 cells) (human, UniProt Q13421 296-598)", "T1 sequence (Q13421 other isoform, or with tags, fused parts or gaps limits assumed)": "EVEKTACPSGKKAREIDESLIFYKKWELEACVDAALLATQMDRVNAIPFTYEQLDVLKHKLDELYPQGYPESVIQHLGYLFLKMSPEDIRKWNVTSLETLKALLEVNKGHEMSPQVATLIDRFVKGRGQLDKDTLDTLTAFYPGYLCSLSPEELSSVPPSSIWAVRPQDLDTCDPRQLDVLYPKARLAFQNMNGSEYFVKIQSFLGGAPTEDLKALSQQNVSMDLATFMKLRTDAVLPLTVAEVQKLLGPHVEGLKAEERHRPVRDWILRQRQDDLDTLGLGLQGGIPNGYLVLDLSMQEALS", "assay": "cell-based or functional assay", "units": {"Internalization FLU": "FLU"}}
{"binder": "B1", "Internalization FLU": 22200}
{"binder": "B2", "Internalization FLU": 9180}
{"binder": "B3", "Internalization FLU": 13700}
{"binder": "B4", "Internalization FLU": 20900}
{"binder": "B5", "Internalization FLU": 21200}
{"binder": "B6", "Internalization FLU": 22400}
{"binder": "B7", "Internalization FLU": 17800}
{"binder": "B8", "Internalization FLU": 8300}
{"binder": "B9", "Internalization FLU": 20900}
{"binder": "B10", "Internalization FLU": 6050}
{"binder": "B11", "Internalization FLU": 8220}
{"binder": "B12", "Internalization FLU": 7040}
{"binder": "B13", "Internalization FLU": 8070}
{"biological_target": "T1, membrane-bound human MSLN (on CHOK1-hu …)", "assay": "flow cytometry on CHOK1-human MSLN cells, Alexa Fluor 488 anti-human IgG detection [panel B]", "description": "(§1) Binding of recombinant anti-MSLN antibodies to human or cynomolgus MSLN-expressing cells was tested by flow cytometry.\n(§2) In brief, anti-MSLN antibodies were serially diluted in staining buffer (PBS containing 2% FBS). 50 μL of diluted antibody solution was added to 50 μL of cell suspension containing 1-2×10⁵ cells and incubated at 4° C. for 1 hour. The cells were washed twice with staining buffer (PBS containing 2% FBS), and 100 μL of 1:1000 diluted florescent labeled anti-human IgG antibody (Alexa Fluor® 488 AffiniPure Goat Anti-Human IgG(H+L), Jackson ImmunoResearch, Catalog 109-545-088) was added into each well. After 1-hour incubation at 4° C., cells were washed twice with staining buffer and subjected to flow cytometry.", "units": {"EC50 (read off the curve)": "nM"}}
{"binder": "B10", "EC50 (read off the curve)": "~0.4"}
{"biological_target": "T1, membrane-bound human MSLN (on CHOK1-hu …)", "assay": "flow cytometry on COV644 cells", "description": "as §2, with “Binding of recombinant anti-MSLN antibodies to COV644 cell line (ECACC, catalog: 07071908) was tested by flow cytometry. In” for “In”", "units": {"EC50": "nM", "TOP (MFI)": "MFI"}}
{"binder": "B1", "EC50": 1.99, "TOP (MFI)": "2.07e+06"}
{"binder": "B2", "EC50": 2.14, "TOP (MFI)": "2.06e+06"}
{"binder": "B3", "EC50": 1.64, "TOP (MFI)": "2.34e+06"}
{"binder": "B5", "EC50": 2.33, "TOP (MFI)": "2.15e+06"}
{"binder": "B7", "EC50": 4.07, "TOP (MFI)": "2.19e+06"}
{"binder": "B8", "EC50": 8.25, "TOP (MFI)": "1.56e+06"}
{"binder": "B9", "EC50": 2.75, "TOP (MFI)": "2.13e+06"}
{"biological_target": "T2, recombinant human MSLN ECD His-tag protein (Acro Biosystems, Catalog #MSN-H5223) (human, UniProt Q13421 296-580, limits assumed)", "T2 construct": "extracellular domain; Bought protein; also called human MSLN protein; recombinant human MSLN-His tag; not shown: His-tag", "T2 sequence (Q13421 other isoform, or with tags, fused parts or gaps limits assumed)": "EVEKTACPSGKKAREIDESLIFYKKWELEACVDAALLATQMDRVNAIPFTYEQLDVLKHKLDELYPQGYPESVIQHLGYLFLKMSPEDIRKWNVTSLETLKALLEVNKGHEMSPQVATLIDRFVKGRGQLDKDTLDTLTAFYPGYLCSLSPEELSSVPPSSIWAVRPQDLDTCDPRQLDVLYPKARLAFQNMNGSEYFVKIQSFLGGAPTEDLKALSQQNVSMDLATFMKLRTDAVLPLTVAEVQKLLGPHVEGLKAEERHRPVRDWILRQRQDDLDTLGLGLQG", "assay": "BLI (Octet Red384), antibody on AHC sensor, human MSLN-His in solution", "description": "In the example, binding kinetics of anti-MSLN antibodies to soluble MSLN were analyzed by Octet Red384 (Fortebio). In Bio-Layer Interferometry (BLI) analysis, recombinant human MSLN-His tag (Acro Biosystems, Catalog #MSN-H5223) was serially diluted with 1× kinetic buffer (Fortebio). Anti-MSLN antibodies were diluted to 5 μg/mL. Then the diluted antibodies, antigen and regeneration buffer (10 mM glycine pH 1.75) were added to 96-well plates (Greiner). Rate constants for association and dissociation were measured using AHC sensor (Fortebio). The sensor surface was regenerated after each binding experiment with regeneration buffer. The traces were processed using Octet Data Analysis Software (version 11.0, Pall ForteBio, CA, USA).", "units": {"Kd": "nM", "kon": "M⁻¹ s⁻¹"}}
{"binder": "B1", "Kd": 0.00965, "kon": "1.28e+06"}
{"binder": "B2", "Kd": "< 0.001", "kon": 828000}
{"binder": "B3", "Kd": "< 0.001", "kon": 947000}
{"binder": "B4", "Kd": "< 0.001", "kon": 978000}
{"binder": "B5", "Kd": "< 0.001", "kon": 956000}
{"binder": "B6", "Kd": "< 0.001", "kon": "1.06e+06"}
{"binder": "B7", "Kd": "< 0.001", "kon": 819000}
{"binder": "B8", "Kd": "< 0.001", "kon": 566000}
{"binder": "B9", "Kd": "< 0.001", "kon": "1.05e+06"}
{"binder": "B10", "Kd": 18.6, "kon": 705000}
{"binder": "B11", "Kd": 128, "kon": 431000}
{"biological_target": "T1, membrane-bound human MSLN (on CHOK1-hu …)", "assay": "flow cytometry on CHOK1-human MSLN cells, Alexa Fluor 488 anti-human IgG detection [panel A]", "description": "as §1, §2", "units": {"EC50 (read off the curve)": "nM"}}
{"binder": "B1", "EC50 (read off the curve)": "~1"}
{"biological_target": "T1, membrane-bound human MSLN (on CHOK1-hu …)", "assay": "flow cytometry on COV644 cells (endogenous human MSLN), Alexa Fluor 488 anti-human IgG detection [panel A]", "description": "as §1, §2", "units": {"EC50 (read off the curve)": "nM"}}
{"binder": "B1", "EC50 (read off the curve)": "~0.4"}
